According to the supplement of paper PMC9112550, “Optimization of the antimicrobial peptide Bac7 by deep mutational scanning” (BMC Biology, 2022):

Each sequence was assayed on Escherichia coli TOP10 (assay: shrunken log2 fold change of peptide-encoding DNA abundance (4.5 h post-induction vs induction); higher = less antimicrobial activity (less host growth inhibition)). Details: time post-induction: 4.5 h; library: site-saturation at positions 5, 18, 19, 20.
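Note: peptides expressed intracellularly from a pBAD plasmid library in pooled LB shake-flask culture, induced with 0.3% L-arabinose, DNA abundance read by NGS, three biological replicates, DESeq2 with apeglm shrinkage.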

In order of falling “shrunken log2 fold change” value:
1. RRIRRRPPRLPRPRPRPRMDPRP  2.27
2. RRIRGRPPRLPRPRPRPSADPRP  1.91
3. RRIRGRPPRLPRPRPRPALMPRP  0.879
4. RRIRKRPPRLPRPRPRPEWLPRP  0.576
5. RRIRGRPPRLPRPRPRPQGRPRP  0.553
6. RRIRGRPPRLPRPRPRPIPRPRP  0.519
7. RRIRVRPPRLPRPRPRPGCRPRP  0.5
8. RRIRKRPPRLPRPRPRPTWMPRP  0.466
9. RRIRRRPPRLPRPRPRPMVGPRP  0.397
10. RRIRSRPPRLPRPRPRPPVPPRP  0.378
11. RRIRGRPPRLPRPRPRPPSNPRP  0.374
12. RRIRMRPPRLPRPRPRPKCCPRP  0.26
13. RRIRERPPRLPRPRPRPKQHPRP  0.241
14. RRIRWRPPRLPRPRPRPVEKPRP  0.234
15. RRIRRRPPRLPRPRPRPAEMPRP  0.219
16. RRIRARPPRLPRPRPRPNCEPRP  0.186
17. RRIRTRPPRLPRPRPRPSHQPRP  0.185
18. RRIRGRPPRLPRPRPRPQWSPRP  0.157
19. RRIRLRPPRLPRPRPRPKAHPRP  0.125
20. RRIRCRPPRLPRPRPRPTYAPRP  0.125
21. RRIRKRPPRLPRPRPRPELDPRP  0.121
22. RRIRTRPPRLPRPRPRPVQWPRP  0.116
23. RRIRWRPPRLPRPRPRPACEPRP  0.11
24. RRIRLRPPRLPRPRPRPKLAPRP  0.098
25. RRIRPRPPRLPRPRPRPGNSPRP  0.0886
26. RRIRDRPPRLPRPRPRPASQPRP  0.0836
27. RRIRMRPPRLPRPRPRPLCMPRP  0.0571
28. RRIRMRPPRLPRPRPRPREDPRP  0.0544
29. RRIRARPPRLPRPRPRPGVIPRP  0.0533
30. RRIRSRPPRLPRPRPRPEICPRP  0.0531
31. RRIRQRPPRLPRPRPRPCKKPRP  0.0212
32. RRIRNRPPRLPRPRPRPMEHPRP  0.0201
33. RRIRTRPPRLPRPRPRPKTEPRP  0.0183
34. RRIRYRPPRLPRPRPRPERLPRP  -0.00207
35. RRIRIRPPRLPRPRPRPNWKPRP  -0.00224
36. RRIRIRPPRLPRPRPRPTTAPRP  -0.00422
37. RRIRKRPPRLPRPRPRPFWSPRP  -0.00917
38. RRIRDRPPRLPRPRPRPNIGPRP  -0.0132
39. RRIRGRPPRLPRPRPRPNDMPRP  -0.0212
40. RRIRNRPPRLPRPRPRPDVYPRP  -0.0277
41. RRIRNRPPRLPRPRPRPIMFPRP  -0.0388
42. RRIRFRPPRLPRPRPRPVYQPRP  -0.0402
43. RRIRIRPPRLPRPRPRPLRNPRP  -0.0491
44. RRIRCRPPRLPRPRPRPIRLPRP  -0.0542
45. RRIRNRPPRLPRPRPRPRNGPRP  -0.0619
46. RRIRQRPPRLPRPRPRPDDAPRP  -0.0705
47. RRIRLRPPRLPRPRPRPIGTPRP  -0.0773
48. RRIRKRPPRLPRPRPRPHQRPRP  -0.0795
49. RRIRQRPPRLPRPRPRPNGMPRP  -0.0839
50. RRIRARPPRLPRPRPRPYKGPRP  -0.144
51. RRIRNRPPRLPRPRPRPPKKPRP  -0.166
52. RRIRIRPPRLPRPRPRPDVMPRP  -0.17
53. RRIRIRPPRLPRPRPRPLHEPRP  -0.191
54. RRIRQRPPRLPRPRPRPHYPPRP  -0.219
55. RRIRFRPPRLPRPRPRPNVQPRP  -0.237
56. RRIRTRPPRLPRPRPRPLWYPRP  -0.245
57. RRIRNRPPRLPRPRPRPQIFPRP  -0.27
58. RRIRGRPPRLPRPRPRPFTMPRP  -0.278
59. RRIRIRPPRLPRPRPRPFPYPRP  -0.288
60. RRIRIRPPRLPRPRPRPTDLPRP  -0.289
61. RRIRVRPPRLPRPRPRPCQNPRP  -0.293
62. RRIRTRPPRLPRPRPRPHTYPRP  -0.296
63. RRIRNRPPRLPRPRPRPNHLPRP  -0.317
64. RRIRTRPPRLPRPRPRPMHLPRP  -0.318
65. RRIRCRPPRLPRPRPRPFEIPRP  -0.341
66. RRIRLRPPRLPRPRPRPCICPRP  -0.346
67. RRIRERPPRLPRPRPRPNDRPRP  -0.426
68. RRIRVRPPRLPRPRPRPVYCPRP  -0.482
69. RRIRRRPPRLPRPRPRPYTIPRP  -0.566
70. RRIRTRPPRLPRPRPRPTKYPRP  -0.612
71. RRIRCRPPRLPRPRPRPQFHPRP  -0.635
72. RRIRWRPPRLPRPRPRPHKYPRP  -0.652
73. RRIRCRPPRLPRPRPRPNNQPRP  -0.75
74. RRIRSRPPRLPRPRPRPHHDPRP  -0.759
75. RRIRYRPPRLPRPRPRPTIYPRP  -0.939
